# Data published in ChEMBL document CHEMBL2073844, “Pharmacological characterization of the murine and human orthologs of multidrug-resistance protein in transfected human embryonic kidney cells” (Mol Pharmacol, 1997).
# B1: Multidrug resistance-associated protein 1 (Mus musculus) (protein)
# chain: MALRSFCSADGSDPLWDWNVTWHTSNPDFTKCFQNTVLTWVPCFYLWSCFPLYFFYLSRHDRGYIQMTHLNKTKTALGFFLWIICWADLFYSFWERSQGVLRAPVLLVSPTLLGITMLLATFLIQLERRKGVQSSGIMLTFWLVALLCALAILRSKIISALKKDAHVDVFRDSTFYLYFTLVLVQLVLSCFSDCSPLFSETVHDRNPCPESSASFLSRITFWWITGMMVHGYRQPLESSDLWSLNKEDTSEEVVPVLVNNWKKECDKSRKQPVRIVYAPPKDPSKPKGSSQLDVNEEVEALIVKSPHKDREPSLFKVLYKTFGPYFLMSFLYKALHDLMMFAGPKILELIINFVNDREAPDWQGYFYTALLFVSACLQTLALHQYFHICFVSGMRIKTAVVGAVYRKALLITNAARKSSTVGEIVNLMSVDAQRFMDLATYINMIWSAPLQVILALYFLWLSLGPSVLAGVAVMILMVPLNAVMAMKTKTYQVAHMKSKDNRIKLMNEILNGIKVLKLYAWELAFQDKVMSIRQEELKVLKKSAYLAAVGTFTWVCTPFLVALSTFAVFVTVDERNILDAKKAFVSLALFNILRFPLNILPMVISSIVQASVSLKRLRIFLSHEELEPDSIERRSIKSGEGNSITVKNATFTWARGEPPTLNGITFSIPEGALVAVVGQVGCGKSSLLSALLAEMDKVEGHVTLKGSVAYVPQQAWIQNDSLRENILFGHPLQENYYKAVMEACALLPDLEILPSGDRTEIGEKGVNLSGGQKQRVSLARAVYSNSDIYLFDDPLSAVDAHVGKHIFEKVVGPMGLLKNKTRILVTHGISYLPQVDVIIVMSGGKISEMGSYQELLDRDGAFAEFLRTYANAEQDLASEDDSVSGSGKESKPVENGMLVTDTVGKHLQRHLSNSSSHSGDTSQQHSSIAELQKAGAKEETWKLMEADKAQTGQVQLSVYWNYMKAIGLFITFLSIFLFLCNHVSALASNYWLSLWTDDPPVVNGTQANRNFRLSVYGALGILQGAAIFGYSMAVSIGGIFASRRLHLDLLYNVLRSPMSFFERTPSGNLVNRFSKELDTVDSMIPQVIKMFMGSLFSVIGAVIIILLATPIAAVIIPPLGLVYFFVQRFYVASSRQLKRLESVSRSPVYSHFNETLLGVSVIRAFEEQERFIHQSDLKVDENQKAYYPSIVANRWLAVRLECVGNCIVLFAALFAVISRHSLSAGLVGLSVSYSLQITAYLNWLVRMSSEMETNIVAVERLKEYSETEKEAPWQIQETAPPSTWPHSGRVEFRDYCLRYREDLDLVLKHINVTIEGGEKVGIVGRTGAGKSSLTLGLFRINESAEGEIIIDGVNIAKIGLHNLRFKITIIPQDPVLFSGSLRMNLDPFSQYSDEEVWMALELAHLKGFVSALPDKLNHECAEGGENLSVGQRQLVCLARALLRKTKILVLDEATAAVDLETDNLIQSTIRTQFEDCTVLTIAHRLNTIMDYTRVIVLDKGEVRECGAPSELLQQRGIFYSMAKDAGLV
# What was measured:
# [1] = substrate: C[C@]12CC[C@@H]3c4ccc(O)cc4CC[C@H]3[C@@H]1CC[C@@H]2O[C@@H]1O[C@H](C(=O)O)[C@@H](O)[C@H](O)[C@H]1O; test: cells, lysate or membranes named
# [2] = substrate: CCCCC/C=C\C\C=C/C=C/C=C/[C@@H](SC[C@@H](NC(=O)CC[C@H](N)C(=O)O)C(=O)NCC(=O)O)[C@@H](O)CCCC(=O)O; test: cells, lysate or membranes named
protein,measurement,setting,value
B1,Km,[1],2.9 µM
same,Km,[2],0.06 µM
